From US20240366811A1, “RA[…] P[…] USES THEREOF” (TIANJIN CONJUSTAR BIOLOGICS CO., LTD., priority 2023, published 2024)
Where two headings read alike, the source gives them in different places. *1 amine or outer side, *2 acyl side, *3 side chain or, on linkers, in order; H or OH if unused. Where a SMILES comes first, the peptide text is derived from it. Bridges are numbered along the chain shown (N, C = ends). [ ]: non-standard residue; d: D form. The star is where a group is joined. TATA = O=C(CC[*:1])N1CN(C(=O)CC[*:2])CN(C(=O)CC[*:3])C1; NOTA = O=C(O)CN1CCN(CC(=O)O)CCN(CC(=O)*)CC1; Hyp = O=C(O)[C@@H]1C[C@@H](O)CN1; hArg = N=C(N)NCCCC[C@H](N)C(=O)O; Pen = CC(C)(S)[C@H](N)C(=O)O; βAla = NCCC(=O)O; Sar = CNCC(=O)O

Key:
in vivo = details: mouse, iv, 11.1 MBq, total radioactivity; for tissue uptake at 4 h: dissected tissue, single iv 11.1 MBq
Description: (§1) In vivo radiobiological distribution assay: mice in the PET/CT imaging group were sacrificed immediately after the end of 4 h imaging, and mice in the inhibition group were sacrificed after 1 h imaging. Tissue samples of tumor, blood, heart, lung, liver, spleen, kidney, stomach, intestine, bone, muscle, and brain were collected by dissection, weighed and their radioactive counts were recorded. The probe uptake value in each tissue and organ of each experimental animal is expressed as radioactivity per gram of tissue as a percentage of the dose administered (% ID/g).

PC-3 tumor-bearing mice = details: 4 h, dissected tissue uptake ratio
Description: as §1
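Also: dissected tissues were weighed and their radioactivity counted, uptake given as percent of administered dose per gram, tissue ratios derived from these values.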

Structure (SMILES): CC(C)C[C@@H]1NC(=O)[C@@H]2CSCCC(=O)N3CN(CN(C3)C(=O)CCSC(C)(C)[C@@H](C(N)=O)NC(=O)[C@H](CCCCNC(=N)N)NC(=O)[C@H](Cc3c[nH]c4ccccc34)NC(=O)[C@@H](CC(=O)O)NC(=O)[C@@H]3CCCN3C(=O)[C@H](Cc3c[nH]cn3)NC1=O)C(=O)CCSC[C@H](NC(=O)[C@@H]1CC(=O)NCCCC[C@H](NC(=O)CN(C)C(=O)CN(C)C(=O)CN(C)C(=O)CN(C)C(=O)CN(C)C(=O)CN(C)C(=O)CN(C)C(=O)CN(C)C(=O)CN(C)C(=O)CN(C)C(=O)CCNC(=O)CN3CCN(CC(=O)O)CCN(CC(=O)O)CC3)C(=O)N[C@@H](CCCCNC(=N)N)C(=O)N1)C(=O)N1C[C@H](O)C[C@H]1C(=O)N[C@@H](CC(C)C)C(=O)N[C@@H](C(C)C)C(=O)N[C@@H](CC(N)=O)C(=O)N1CCC[C@H]1C(=O)N[C@@H](CC(C)C)C(=O)N2 [Example 3] ({NOTA-βAla}-[Sar][Sar][Sar][Sar][Sar][Sar][Sar][Sar][Sar][Sar]K[hArg]DC[Hyp]LVNPLCLHP[dD]W[hArg][Pen]-NH2; lactam 11-13; linker 14-21-28 via TATA)
- tissue uptake at 4 h (in vivo; nude mice, heart, radioactive uptake: Heart, mouse S1): 0.31 %ID/g
- tissue uptake at 4 h (in vivo; nude mice, intestine, radioactive uptake: Intestine, Mean ± SD of S1-S3): 0.31 ± 0.1 %ID/g
- tissue uptake at 4 h (in vivo; nude mice, intestine, radioactive uptake: Intestine, mouse S1): 0.42 %ID/g
- tissue uptake at 4 h (in vivo; nude mice, intestine, radioactive uptake: Intestine, mouse S2): 0.29 %ID/g
- tissue uptake at 4 h (in vivo; nude mice, intestine, radioactive uptake: Intestine, mouse S3): 0.22 %ID/g
- tissue uptake at 4 h (in vivo; nude mice, muscle, radioactive uptake: Muscle, Mean ± SD of S1-S3): 0.5 ± 0.23 %ID/g
- tissue uptake at 4 h (in vivo; nude mice, muscle, radioactive uptake: Muscle, mouse S1): 0.46 %ID/g
- tissue uptake at 4 h (in vivo; nude mice, muscle, radioactive uptake: Muscle, mouse S2): 0.76 %ID/g
- tissue uptake at 4 h (in vivo; nude mice, muscle, radioactive uptake: Muscle, mouse S3): 0.3 %ID/g
- tissue to tissue ratio at 4 h (in vivo; nude mice, tumor and spleen): 7.2 ± 3
- tissue to tissue ratio at 4 h (in vivo; nude mice, tumor/blood): 21.9 ± 16.7
- tissue to tissue ratio at 4 h (in vivo; nude mice, tumor/bone): 4.23 ± 2.87
- tissue to tissue ratio at 4 h (in vivo; nude mice, tumor/brain): 58.8 ± 28.7
- tissue to tissue ratio at 4 h (in vivo; nude mice, tumor/intestine): 15.7 ± 10.3
- tissue to tissue ratio at 4 h (in vivo; nude mice, tumor/muscle): 11.3 ± 8.54
- tissue to tissue ratio at 4 h (in vivo; nude mice, tumor/stomach): 24 ± 9.97
- tissue uptake at 4 h (in vivo; nude, blood, radioactive uptake: Blood, Mean ± SD of S1-S3): 0.31 ± 0.22 %ID/g
- tissue uptake at 4 h (in vivo; nude, blood, radioactive uptake: Blood, mouse S1): 0.2 %ID/g
- tissue uptake at 4 h (in vivo; nude, blood, radioactive uptake: Blood, mouse S2): 0.56 %ID/g
- tissue uptake at 4 h (in vivo; nude, blood, radioactive uptake: Blood, mouse S3): 0.16 %ID/g
- tissue uptake at 4 h (in vivo; nude, bone, radioactive uptake: Bone, Mean ± SD of S1-S3): 1.23 ± 0.43 %ID/g
- tissue uptake at 4 h (in vivo; nude, bone, radioactive uptake: Bone, mouse S1): 1.15 %ID/g
- tissue uptake at 4 h (in vivo; nude, bone, radioactive uptake: Bone, mouse S2): 1.69 %ID/g
- tissue uptake at 4 h (in vivo; nude, bone, radioactive uptake: Bone, mouse S3): 0.84 %ID/g
- tissue uptake at 4 h (in vivo; nude, brain, radioactive uptake: Brain, Mean ± SD of S1-S3): 0.08 ± 0.03 %ID/g
- tissue uptake at 4 h (in vivo; nude, brain, radioactive uptake: Brain, mouse S1): 0.11 %ID/g
- tissue uptake at 4 h (in vivo; nude, brain, radioactive uptake: Brain, mouse S2): 0.05 %ID/g
- tissue uptake at 4 h (in vivo; nude, brain, radioactive uptake: Brain, mouse S3): 0.06 %ID/g
- tissue uptake at 4 h (in vivo; nude, heart, radioactive uptake: Heart, Mean ± SD of S1-S3): 0.26 ± 0.06 %ID/g
- tissue uptake at 4 h (in vivo; nude, heart, radioactive uptake: Heart, mouse S2): 0.29 %ID/g
- tissue uptake at 4 h (in vivo; nude, heart, radioactive uptake: Heart, mouse S3): 0.2 %ID/g
- tissue uptake at 4 h (in vivo; nude, kidney, radioactive uptake: Kidney, Mean ± SD of S1-S3): 57 ± 5.7 %ID/g
- tissue uptake at 4 h (in vivo; nude, kidney, radioactive uptake: Kidney, mouse S1): 62.7 %ID/g
- tissue uptake at 4 h (in vivo; nude, kidney, radioactive uptake: Kidney, mouse S2): 51.3 %ID/g
- tissue uptake at 4 h (in vivo; nude, kidney, radioactive uptake: Kidney, mouse S3): 57.1 %ID/g
- tissue uptake at 4 h (in vivo; nude, liver, radioactive uptake: Liver, Mean ± SD of S1-S3): 0.62 ± 0.11 %ID/g
- tissue uptake at 4 h (in vivo; nude, liver, radioactive uptake: Liver, mouse S1): 0.66 %ID/g
- tissue uptake at 4 h (in vivo; nude, liver, radioactive uptake: Liver, mouse S2): 0.5 %ID/g
- tissue uptake at 4 h (in vivo; nude, liver, radioactive uptake: Liver, mouse S3): 0.71 %ID/g
- tissue uptake at 4 h (in vivo; nude, lung, radioactive uptake: Lung, Mean ± SD of S1-S3): 0.42 ± 0.1 %ID/g
- tissue uptake at 4 h (in vivo; nude, lung, radioactive uptake: Lung, mouse S1): 0.49 %ID/g
- tissue uptake at 4 h (in vivo; nude, lung, radioactive uptake: Lung, mouse S2): 0.46 %ID/g
- tissue uptake at 4 h (in vivo; nude, lung, radioactive uptake: Lung, mouse S3): 0.31 %ID/g
- tissue uptake at 4 h (in vivo; nude, spleen, radioactive uptake: Spleen, Mean ± SD of S1-S3): 0.6 ± 0.06 %ID/g
- tissue uptake at 4 h (in vivo; nude, spleen, radioactive uptake: Spleen, mouse S1): 0.66 %ID/g
- tissue uptake at 4 h (in vivo; nude, spleen, radioactive uptake: Spleen, mouse S2): 0.54 %ID/g
- tissue uptake at 4 h (in vivo; nude, spleen, radioactive uptake: Spleen, mouse S3): 0.59 %ID/g
- tissue uptake at 4 h (in vivo; nude, stomach, radioactive uptake: Stomach, Mean ± SD of S1-S3): 0.18 ± 0.04 %ID/g
- tissue uptake at 4 h (in vivo; nude, stomach, radioactive uptake: Stomach, mouse S1): 0.22 %ID/g
- tissue uptake at 4 h (in vivo; nude, stomach, radioactive uptake: Stomach, mouse S2): 0.15 %ID/g
- tissue uptake at 4 h (in vivo; nude, stomach, radioactive uptake: Stomach, mouse S3): 0.17 %ID/g
- tissue to tissue ratio at 4 h (in vivo; nude, tumor and heart): 18 ± 11.4
- tissue to tissue ratio at 4 h (in vivo; nude, tumor and lung): 11.3 ± 7.18
- tissue uptake at 4 h (in vivo; nude, tumor, radioactive uptake: Tumor, Mean ± SD of S1-S3): 4.38 ± 1.94 %ID/g
- tissue uptake at 4 h (in vivo; nude, tumor, radioactive uptake: Tumor, mouse S1): 5.03 %ID/g
- tissue uptake at 4 h (in vivo; nude, tumor, radioactive uptake: Tumor, mouse S2): 2.19 %ID/g
- tissue uptake at 4 h (in vivo; nude, tumor, radioactive uptake: Tumor, mouse S3): 5.9 %ID/g
- Tumor/blood (PC-3 tumor-bearing mice; mouse S1): 24.89
- Tumor/bone (PC-3 tumor-bearing mice; mouse S1): 4.39
- Tumor/brain (PC-3 tumor-bearing mice; mouse S1): 44.40
- Tumor/heart (PC-3 tumor-bearing mice; mouse S1): 16.45
- Tumor/intestine (PC-3 tumor-bearing mice; mouse S1): 12.02
- Tumor/kidney (PC-3 tumor-bearing mice; mouse S1): 0.08
- Tumor/liver (PC-3 tumor-bearing mice; mouse S1): 7.63
- Tumor/lung (PC-3 tumor-bearing mice; mouse S1): 10.25
- Tumor/muscle (PC-3 tumor-bearing mice; mouse S1): 11.01
- Tumor/spleen (PC-3 tumor-bearing mice; mouse S1): 7.58
- Tumor/stomach (PC-3 tumor-bearing mice; mouse S1): 22.84
- Tumor/blood (PC-3 tumor-bearing mice; mouse S2): 3.88
- Tumor/bone (PC-3 tumor-bearing mice; mouse S2): 1.30
- Tumor/brain (PC-3 tumor-bearing mice; mouse S2): 40.18
- Tumor/heart (PC-3 tumor-bearing mice; mouse S2): 7.47
- Tumor/intestine (PC-3 tumor-bearing mice; mouse S2): 7.64
- Tumor/kidney (PC-3 tumor-bearing mice; mouse S2): 0.04
- Tumor/liver (PC-3 tumor-bearing mice; mouse S2): 4.34
- Tumor/lung (PC-3 tumor-bearing mice; mouse S2): 4.78
- Tumor/muscle (PC-3 tumor-bearing mice; mouse S2): 2.89
- Tumor/spleen (PC-3 tumor-bearing mice; mouse S2): 4.03
- Tumor/stomach (PC-3 tumor-bearing mice; mouse S2): 14.71
- Tumor/blood (PC-3 tumor-bearing mice; mouse S3): 36.90
- Tumor/bone (PC-3 tumor-bearing mice; mouse S3): 7.02
- Tumor/brain (PC-3 tumor-bearing mice; mouse S3): 91.90
- Tumor/heart (PC-3 tumor-bearing mice; mouse S3): 30.12
- Tumor/intestine (PC-3 tumor-bearing mice; mouse S3): 27.31
- Tumor/kidney (PC-3 tumor-bearing mice; mouse S3): 0.10
- Tumor/liver (PC-3 tumor-bearing mice; mouse S3): 8.30
- Tumor/lung (PC-3 tumor-bearing mice; mouse S3): 19.01
